Data from patent US9176064B2, “Bisubstrate fluorescent probes for protein kinase CK2” (University of Tartu, priority 2012, dated 2015).
Where a SMILES comes first, the peptide text is derived from it. [ ]: non-standard residue; d: D form. The star is where a group is joined. X1 = O=C(CCCCCCCn1cnc2c(Br)c(Br)c(Br)c(Br)c21)*

Columns and labels:
Experiment in all cases: Kinase panel residual activity
Type in all cases: biochemical
Details in all cases: compound at 1 micromolar
TTK = target: T1, TTK (Homo sapiens, UniProt P33981)
T1 sequence (P33981 1-857): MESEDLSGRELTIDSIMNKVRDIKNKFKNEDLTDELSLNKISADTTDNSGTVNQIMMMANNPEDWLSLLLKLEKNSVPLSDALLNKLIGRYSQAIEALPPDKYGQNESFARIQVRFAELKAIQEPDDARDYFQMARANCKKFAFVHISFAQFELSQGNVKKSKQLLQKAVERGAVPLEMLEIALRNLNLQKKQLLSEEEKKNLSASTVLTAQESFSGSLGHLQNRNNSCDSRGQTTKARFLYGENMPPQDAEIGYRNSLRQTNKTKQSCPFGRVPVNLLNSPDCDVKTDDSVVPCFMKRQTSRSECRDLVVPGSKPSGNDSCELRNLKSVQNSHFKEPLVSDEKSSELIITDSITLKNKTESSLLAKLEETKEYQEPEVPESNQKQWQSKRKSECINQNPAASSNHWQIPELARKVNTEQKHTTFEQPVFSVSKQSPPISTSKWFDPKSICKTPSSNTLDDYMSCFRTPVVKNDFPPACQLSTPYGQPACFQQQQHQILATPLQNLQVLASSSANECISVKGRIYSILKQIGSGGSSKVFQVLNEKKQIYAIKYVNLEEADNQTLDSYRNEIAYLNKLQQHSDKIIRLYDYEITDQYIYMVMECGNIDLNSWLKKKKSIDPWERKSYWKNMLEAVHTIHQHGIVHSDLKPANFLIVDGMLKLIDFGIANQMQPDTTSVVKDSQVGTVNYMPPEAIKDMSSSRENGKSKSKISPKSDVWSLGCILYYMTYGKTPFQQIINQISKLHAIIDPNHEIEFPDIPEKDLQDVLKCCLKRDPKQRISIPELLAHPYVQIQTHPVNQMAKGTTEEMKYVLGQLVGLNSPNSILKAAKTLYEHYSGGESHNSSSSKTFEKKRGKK

IR = IR (Homo sapiens, UniProt P06213)
Chain of IR (P06213 28-1382): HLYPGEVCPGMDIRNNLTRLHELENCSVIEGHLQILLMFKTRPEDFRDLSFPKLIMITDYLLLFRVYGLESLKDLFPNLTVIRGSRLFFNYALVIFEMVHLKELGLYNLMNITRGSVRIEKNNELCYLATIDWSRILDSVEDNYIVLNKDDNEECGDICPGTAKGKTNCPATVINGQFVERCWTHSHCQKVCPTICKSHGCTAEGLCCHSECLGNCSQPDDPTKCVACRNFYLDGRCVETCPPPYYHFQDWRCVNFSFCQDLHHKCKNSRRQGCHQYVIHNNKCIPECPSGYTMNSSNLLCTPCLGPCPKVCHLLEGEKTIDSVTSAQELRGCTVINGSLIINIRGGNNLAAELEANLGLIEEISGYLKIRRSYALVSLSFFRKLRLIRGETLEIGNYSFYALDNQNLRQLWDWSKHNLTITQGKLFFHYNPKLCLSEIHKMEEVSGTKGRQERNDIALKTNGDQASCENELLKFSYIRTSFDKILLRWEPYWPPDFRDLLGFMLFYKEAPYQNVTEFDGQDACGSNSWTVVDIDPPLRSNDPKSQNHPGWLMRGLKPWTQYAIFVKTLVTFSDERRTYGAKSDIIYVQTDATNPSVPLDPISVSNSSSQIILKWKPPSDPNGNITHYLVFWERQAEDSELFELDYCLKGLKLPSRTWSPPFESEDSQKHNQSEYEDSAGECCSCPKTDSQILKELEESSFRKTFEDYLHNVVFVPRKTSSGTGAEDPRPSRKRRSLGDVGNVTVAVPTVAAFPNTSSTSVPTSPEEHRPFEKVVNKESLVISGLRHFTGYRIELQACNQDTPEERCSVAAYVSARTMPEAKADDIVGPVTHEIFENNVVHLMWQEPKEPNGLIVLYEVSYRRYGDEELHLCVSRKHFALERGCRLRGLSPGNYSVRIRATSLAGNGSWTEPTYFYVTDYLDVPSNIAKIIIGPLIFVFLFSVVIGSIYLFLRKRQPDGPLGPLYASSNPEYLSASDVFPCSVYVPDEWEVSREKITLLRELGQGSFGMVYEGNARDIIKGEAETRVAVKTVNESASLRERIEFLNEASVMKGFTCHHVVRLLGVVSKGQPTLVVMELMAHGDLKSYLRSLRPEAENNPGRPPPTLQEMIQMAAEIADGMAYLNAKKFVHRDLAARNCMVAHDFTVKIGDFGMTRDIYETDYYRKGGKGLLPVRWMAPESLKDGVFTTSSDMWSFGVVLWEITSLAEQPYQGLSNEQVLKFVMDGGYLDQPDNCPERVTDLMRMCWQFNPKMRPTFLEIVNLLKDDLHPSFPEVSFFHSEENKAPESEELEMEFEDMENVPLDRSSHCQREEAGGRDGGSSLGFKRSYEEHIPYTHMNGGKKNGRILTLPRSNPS

MARK3 = MARK3 (Homo sapiens, UniProt P27448)
Chain of MARK3 (P27448 whole entry, species assumed): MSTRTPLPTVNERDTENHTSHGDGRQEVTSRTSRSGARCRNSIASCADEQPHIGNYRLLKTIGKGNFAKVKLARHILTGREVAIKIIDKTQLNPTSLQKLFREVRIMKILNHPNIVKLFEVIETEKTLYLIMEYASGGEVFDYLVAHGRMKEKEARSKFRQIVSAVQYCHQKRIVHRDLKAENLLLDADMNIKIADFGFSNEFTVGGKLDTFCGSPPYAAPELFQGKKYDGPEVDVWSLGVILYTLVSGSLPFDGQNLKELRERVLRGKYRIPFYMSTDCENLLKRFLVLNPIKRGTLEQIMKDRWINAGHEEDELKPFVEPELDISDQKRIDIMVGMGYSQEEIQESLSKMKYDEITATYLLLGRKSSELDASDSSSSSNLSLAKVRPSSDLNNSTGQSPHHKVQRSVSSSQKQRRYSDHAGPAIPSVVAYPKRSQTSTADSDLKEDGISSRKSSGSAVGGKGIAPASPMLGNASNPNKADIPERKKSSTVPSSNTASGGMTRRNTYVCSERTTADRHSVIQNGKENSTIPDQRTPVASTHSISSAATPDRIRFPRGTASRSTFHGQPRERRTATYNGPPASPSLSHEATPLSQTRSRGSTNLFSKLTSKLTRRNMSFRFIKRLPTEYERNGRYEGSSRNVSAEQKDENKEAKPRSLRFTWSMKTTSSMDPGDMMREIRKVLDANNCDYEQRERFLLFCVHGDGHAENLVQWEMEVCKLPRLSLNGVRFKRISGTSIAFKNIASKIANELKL

EF2K = EF2K (Homo sapiens, UniProt O00418)
Chain of EF2K (O00418 whole entry): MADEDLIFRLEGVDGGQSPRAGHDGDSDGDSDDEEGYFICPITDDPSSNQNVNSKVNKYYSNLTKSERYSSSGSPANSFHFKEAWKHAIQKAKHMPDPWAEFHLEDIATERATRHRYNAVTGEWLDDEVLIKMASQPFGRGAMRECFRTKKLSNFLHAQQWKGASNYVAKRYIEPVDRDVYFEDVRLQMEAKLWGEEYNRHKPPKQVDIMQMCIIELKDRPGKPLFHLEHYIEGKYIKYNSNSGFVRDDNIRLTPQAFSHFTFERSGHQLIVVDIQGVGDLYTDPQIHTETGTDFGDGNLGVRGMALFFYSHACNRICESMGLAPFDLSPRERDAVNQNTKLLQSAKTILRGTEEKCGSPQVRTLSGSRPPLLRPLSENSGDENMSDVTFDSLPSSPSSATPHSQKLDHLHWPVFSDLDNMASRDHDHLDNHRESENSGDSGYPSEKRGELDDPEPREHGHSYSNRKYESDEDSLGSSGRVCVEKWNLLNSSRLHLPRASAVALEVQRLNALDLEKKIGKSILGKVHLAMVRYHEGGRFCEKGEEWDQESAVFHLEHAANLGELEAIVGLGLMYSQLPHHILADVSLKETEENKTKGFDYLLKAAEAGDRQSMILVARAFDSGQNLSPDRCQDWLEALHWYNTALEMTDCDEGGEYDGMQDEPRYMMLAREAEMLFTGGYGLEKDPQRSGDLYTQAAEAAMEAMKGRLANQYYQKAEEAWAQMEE

SmMLCK = SmMLCK (Homo sapiens, UniProt Q15746)
Chain of SmMLCK (Q15746 923-1914): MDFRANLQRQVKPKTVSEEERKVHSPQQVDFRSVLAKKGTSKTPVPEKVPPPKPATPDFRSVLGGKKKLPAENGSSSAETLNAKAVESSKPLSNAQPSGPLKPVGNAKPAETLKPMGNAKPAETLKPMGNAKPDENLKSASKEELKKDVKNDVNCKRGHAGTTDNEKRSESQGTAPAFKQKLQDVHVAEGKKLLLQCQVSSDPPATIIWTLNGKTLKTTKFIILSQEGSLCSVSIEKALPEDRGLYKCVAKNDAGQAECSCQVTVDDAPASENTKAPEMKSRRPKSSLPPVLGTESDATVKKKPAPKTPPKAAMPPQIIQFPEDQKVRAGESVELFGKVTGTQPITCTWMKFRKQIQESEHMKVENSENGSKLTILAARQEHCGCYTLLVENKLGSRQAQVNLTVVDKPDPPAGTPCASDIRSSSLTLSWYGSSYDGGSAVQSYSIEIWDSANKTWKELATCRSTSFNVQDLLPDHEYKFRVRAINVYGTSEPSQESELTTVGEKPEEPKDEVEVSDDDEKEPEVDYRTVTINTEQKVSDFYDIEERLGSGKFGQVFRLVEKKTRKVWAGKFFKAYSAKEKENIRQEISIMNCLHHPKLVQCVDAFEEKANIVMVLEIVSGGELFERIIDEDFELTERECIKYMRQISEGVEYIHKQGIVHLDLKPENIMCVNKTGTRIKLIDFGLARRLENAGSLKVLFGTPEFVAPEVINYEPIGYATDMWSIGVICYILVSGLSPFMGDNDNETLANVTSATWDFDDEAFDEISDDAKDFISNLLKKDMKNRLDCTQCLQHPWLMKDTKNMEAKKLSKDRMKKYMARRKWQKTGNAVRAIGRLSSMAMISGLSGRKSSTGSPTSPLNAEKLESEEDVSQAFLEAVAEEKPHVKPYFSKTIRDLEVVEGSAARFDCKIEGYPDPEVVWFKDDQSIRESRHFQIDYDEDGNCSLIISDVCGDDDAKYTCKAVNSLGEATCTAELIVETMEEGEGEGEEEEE

CAMK1 = CAMK1 (Homo sapiens, UniProt Q14012)
Chain of CAMK1 (Q14012 whole entry): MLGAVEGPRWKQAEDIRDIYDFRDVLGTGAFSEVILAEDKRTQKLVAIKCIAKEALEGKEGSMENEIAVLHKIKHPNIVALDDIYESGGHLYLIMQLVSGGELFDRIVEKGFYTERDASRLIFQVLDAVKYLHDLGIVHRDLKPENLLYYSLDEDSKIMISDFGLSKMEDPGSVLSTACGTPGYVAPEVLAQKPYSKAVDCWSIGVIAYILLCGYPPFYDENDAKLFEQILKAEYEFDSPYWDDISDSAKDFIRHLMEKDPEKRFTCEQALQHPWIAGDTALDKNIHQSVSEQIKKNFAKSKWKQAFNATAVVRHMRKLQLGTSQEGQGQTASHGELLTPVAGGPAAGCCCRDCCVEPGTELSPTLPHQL

ASK1 = target: T2, ASK1 (Homo sapiens, UniProt Q99683)
T2 sequence (Q99683 1-1374): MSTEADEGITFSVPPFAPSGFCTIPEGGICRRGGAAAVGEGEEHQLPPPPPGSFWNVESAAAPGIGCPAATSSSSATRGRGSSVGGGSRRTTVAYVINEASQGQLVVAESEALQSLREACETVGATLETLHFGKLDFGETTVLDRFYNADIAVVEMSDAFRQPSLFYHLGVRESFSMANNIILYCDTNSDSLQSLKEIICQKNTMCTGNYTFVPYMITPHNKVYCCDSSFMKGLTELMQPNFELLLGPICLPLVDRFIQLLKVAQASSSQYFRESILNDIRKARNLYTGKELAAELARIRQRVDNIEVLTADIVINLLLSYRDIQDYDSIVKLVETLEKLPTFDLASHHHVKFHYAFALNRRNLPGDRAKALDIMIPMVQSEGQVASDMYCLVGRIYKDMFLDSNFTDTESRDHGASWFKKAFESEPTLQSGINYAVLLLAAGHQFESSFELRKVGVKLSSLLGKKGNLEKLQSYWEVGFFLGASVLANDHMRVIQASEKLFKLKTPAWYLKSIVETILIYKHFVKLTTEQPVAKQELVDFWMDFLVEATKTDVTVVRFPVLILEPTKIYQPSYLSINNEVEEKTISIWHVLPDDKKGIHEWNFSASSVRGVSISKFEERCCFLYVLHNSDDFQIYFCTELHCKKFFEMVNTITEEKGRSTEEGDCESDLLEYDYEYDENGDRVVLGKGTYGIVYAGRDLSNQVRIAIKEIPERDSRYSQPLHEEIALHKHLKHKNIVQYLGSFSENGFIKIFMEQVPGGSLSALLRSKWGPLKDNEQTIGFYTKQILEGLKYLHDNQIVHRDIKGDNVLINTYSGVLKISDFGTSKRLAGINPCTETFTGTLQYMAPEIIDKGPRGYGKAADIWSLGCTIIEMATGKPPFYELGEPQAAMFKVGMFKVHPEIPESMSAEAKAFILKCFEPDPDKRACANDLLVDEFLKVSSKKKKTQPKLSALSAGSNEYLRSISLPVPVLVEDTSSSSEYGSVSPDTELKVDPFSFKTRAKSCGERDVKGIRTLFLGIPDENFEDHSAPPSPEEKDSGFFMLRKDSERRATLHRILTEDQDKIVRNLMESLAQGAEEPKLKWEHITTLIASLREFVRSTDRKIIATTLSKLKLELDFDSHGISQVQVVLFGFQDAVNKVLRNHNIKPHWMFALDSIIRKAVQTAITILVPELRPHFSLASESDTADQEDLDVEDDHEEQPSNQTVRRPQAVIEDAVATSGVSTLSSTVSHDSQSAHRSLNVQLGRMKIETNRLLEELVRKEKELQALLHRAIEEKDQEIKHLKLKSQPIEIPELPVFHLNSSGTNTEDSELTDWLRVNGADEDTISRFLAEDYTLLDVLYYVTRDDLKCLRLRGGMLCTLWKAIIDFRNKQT

IRAK4 = target: T3, IRAK4 (Homo sapiens, UniProt Q9NWZ3)
T3 sequence (Q9NWZ3 1-460): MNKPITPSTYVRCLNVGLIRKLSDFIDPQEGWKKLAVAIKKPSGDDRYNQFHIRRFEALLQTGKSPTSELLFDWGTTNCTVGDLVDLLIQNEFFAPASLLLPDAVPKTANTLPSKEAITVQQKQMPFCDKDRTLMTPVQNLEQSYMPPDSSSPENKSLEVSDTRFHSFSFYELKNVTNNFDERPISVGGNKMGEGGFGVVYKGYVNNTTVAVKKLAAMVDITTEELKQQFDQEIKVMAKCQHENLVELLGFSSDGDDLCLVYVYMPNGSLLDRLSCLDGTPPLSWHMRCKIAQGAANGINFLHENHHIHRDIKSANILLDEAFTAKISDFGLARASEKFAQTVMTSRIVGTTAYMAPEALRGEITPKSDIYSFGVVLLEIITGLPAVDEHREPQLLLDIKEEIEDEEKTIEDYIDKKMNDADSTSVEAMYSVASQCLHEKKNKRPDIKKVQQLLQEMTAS

NCCCC[C@H](NC(=O)[C@H](CC(=O)O)NC(=O)[C@H](CC(=O)O)NC(=O)[C@H](CC(=O)O)NC(=O)[C@H](CC(=O)O)NC(=O)[C@H](CC(=O)O)NC(=O)[C@@H](CC(=O)O)NC(=O)CCCCCCCn1cnc2c(Br)c(Br)c(Br)c(Br)c21)C(=O)O [TBBI-OcA-(D-Asp)-(L-Asp)5-(L-Lys)-OH] (X1-[dD]DDDDDK-OH)
remaining activity at 1 µM (TTK): 52%
remaining activity at 1 µM (IR): 70%
remaining activity at 1 µM (MARK3): 73%
remaining activity at 1 µM (EF2K): 80%
remaining activity at 1 µM (SmMLCK): 96%
remaining activity at 1 µM (CAMK1): 105%
remaining activity at 1 µM (ASK1): 114%
remaining activity at 1 µM (IRAK4): 118%
